Experimental data: the nanobody polyreactivity screen of Harvey et al. (2022)

Experiment: yeast display, Sf9 membrane polyspecificity reagent, FACS + sequencing; frameworks hold sequencing errors
Summary of the method: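 Galactose induction of a Saccharomyces cerevisiae BJ5465 synthetic nanobody display library ran 36–48 hours. The cells were then stained for 1 hour at 4 °C with 10% biotinylated, detergent-solubilized Sf9 membrane reagent, pulled down on streptavidin microbeads and FACS-sorted into low and high (top ~1%) gates on expression and reagent-binding fluorescence. Labels for polyreactivity follow the gate of origin.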

Sequence | polyreactivity (PSR sort gate)
QVQLVESGGGLVQAGGSLRLSCAASGSIFVWNAMGWYRQAPGKERELVAAISYTDGSTYYADSVKGRFTISRDNAKNTVYLQMNSLKPEDTAVYYCAAAITPSYTGSEYDYWGQGTQVTVSS | low polyreactivity
QVQLVESGGGLVQAGGSLRLSCADSGRIFVHHDMGRYRQAPGKVRELVATITSGGSTYYADSVKGRFTISRDNAKNTVYLQMNSLKPEDTAVYYCAADSWDYDSRMDYWGQGTQVTVSS | low polyreactivity
QVQLVESGGGLVQAGGSLRLSCASSGRISYRNAMGWYRQAPGKERELVAAISSSGDSTYYADAVKGRFTISRDNAKNTVYLQMNSLKPEDTAVYYCAARHSAVYYGYHRYYYWGQGTQVTVSS | high polyreactivity
QVQLVESGGCLVQAGGSLRLSCVASGRTFRRYAMGWYRQAPGKERELLSTITLNGGSTYYADSVKGRFTISRDNATNTVDLQMNSLKPEDTAVYDCKRCTNVVRRGVYSFGYDYWGEGTQVTVSS | low polyreactivity
QVQLVESGGGLVQAGGSLRLSCAASGRIFKWYAMGWYRQAPGKVRELVAAISARGGRTYYADSVKGRFTISRDNAKNTVYLQMNSLKPEDTAVYYCATDYVKSDAYKYYYWGQGTQVTVSS | high polyreactivity
QVQLVESGGGLVHAGGSLRLSCAASGSIFGRNAMGWYRQPPGKERELVARISSRGGSTYYADSVKGRFTISRDNAKNTVYLQMNSLKPEDTAVYYCNRDRTSQTNDYWGQGNQVTVSS | high polyreactivity
QVQLVESGGGLVQAGGSLRLSCAASGSTFFRNAMGWYRQAPGKERELVAGITSGVTTYYADSVKGRFTISRDNAKNTVYLQMNSLKPEDTAVYYCAARRTGYRLRKSDYWGQGTQVTVSS | high polyreactivity
QVQLVESGGGLVQAGGSLRLSCAASGRIFLLNAMGWYRQAPGKERELVADISFNGGSKYYADSVKGRFTISRDNAKNTVYLQMNSLKPEDTAVYYCNADAHNLWFRYYYWGQGTQVTVSS | low polyreactivity
QVQLVESGGGLVQAGGSLRLSCAASGRIFYGYTMGWYIQAPGKERELVAAISKHAGSTYYSDSVKGRFTISRDNAKNTVYLQMNSLKPEDTAVYYCAKDSSVQAYYGYWYTSTDDYWGQGTQVTVSS | low polyreactivity
QVQLVESGGGLVQAGGSLRLSCAASGRIFVRNAMGWYRQAPGKERELVAAISWSSGGTYYADSVKGRFTISRDNAKNTVYLQMNSLKPEDTAVYYCNADPSRAGDYWGQGTQVTVSS | low polyreactivity
QVQLVESGGGLVQAGGSLRLSCAASGRTFYVYAMGWYRQAPGKERELVAAITSGGRTYYADSVKGRFTISRDNAKNTVYLQMNSLKPEDTAVYYCAVGNGLSRYVYGDYDYWGQGTQVTVSS | high polyreactivity
QVQLVESAGGLVHAGGSLSLSCAASAILGNNAMGWYRQAPRKQRELVAAISARGGRTYYADSVKGRFTISRDNAKNTVYLQMNSLKPEDTAVYYCATLETSGVNYWGQGTQVTVSS | high polyreactivity
QVQLVESGGGLVQAGGSLRLSCAASGSTLSGYVMGWYRQAPGKERELVAGISQSGASTYYADSVKGRFTISRDNAKNTVYLQMNSLKPEDTAVYYCAAVARYLLKYRRYGYWGQGTQVTVSS | high polyreactivity
QVQLVESGGCLVQAGGSLRLSCAASGRIFRTYTMGWYRQAPGKERELVAAITWNGGSTYYADSVKGRFTISRDNAKNTVYLQMNSLKPEDTAVYYCIADRHYSAYPLYDYWGQGTQVTVSS | low polyreactivity
QVQLVESGGGLVQAGGSLRLSCAASGFIFYSYAMGWYRQAPGKERELVAAISWSGGRTYYADSVKGRFTISRDNAKNTVYLQMNSLKPEDTAVYYCNADDYSFSFTVPYYIEYVYWGQGTQVTVSS | high polyreactivity
QVQLVESGGGLDQAGGSLRLSCAASGSIIWYYAMGWYRQAPGKESELVASISRRGGSTYYADSVKGRFTISRDNAKYTVYLQMNSLKPEDTAVYYCAAYSRTTGSTVQGTYDYWGQGTQVSVSS | low polyreactivity
QVQLVESGGGLVQAGGSLRLSCAASGRIFRKNVMGWYRQAPGKERELVAAITTRGGSTYYADSVKGRFTISRDNAKNTVYLQMNSLKPEDTAVYYCATRVQWNSRYDYWGQGTQVTVSS | high polyreactivity
QVQLVESGGGLVQAGGSLRLSCAASGRIFWYYDMGWYRQAPGKERELVAAISQRGGSTYYADSVKGRFTISRDNAKNTVYLQMKSLKPEDTAVYYCAKRNPYWATREYWGLGTQVTVSS | high polyreactivity
QVQLVESGGGLVQAGGSLRLSCAASGSTFAFNAMGWYRQAPGKERELVAAIYSDGSTDYADSVKGRFSISRDNAKNTVYLQMNSLKPEDPAVYYCADDWGWRYVLPVGWFRYGYWGQGTQVTVSS | low polyreactivity
QVQLVESGGGLVQAGGSLRISCAASGSIYSAYVMGWYRQAPGKERELVSAITRSGGSTYYADSVKGRFTISRDNAKNTVYFQMNSLKPEDTAVYYCAVDYLLHYYSYIEDYWGQGTQVTVSS | low polyreactivity
QVQLVESGGGLVQAGGSLRLSCAASGRTFSVNDMGWYRQAPGKERELVAAISFSGGSTYYADSVKGRFTISRDNAKNSVYLQMNSLKPEDTEVYYCAAEAYASCFYVITGFGIYDYWGQGTQVTVSS | high polyreactivity
QVQLVESGGGLVQAGGSLRLSCAASGRIFKYYSMGWYRQAPWKERELVAAITRGGSTNYADSVKGRFTISRDNEKNTVYLQMNSLKPEDTAVYYCAVDTVRNHRMDYWGQGTQVTVSS | low polyreactivity

Sequence | polyreactivity (PSR sort gate)
QVQLVESGGGLVQAGGILRLSCAASGRIFRVNTMGWYRKAPGKERELVAAIRSSGTRTYYADSVKGRFTISRDNAKNTVYLQMNSVKPEDTAVYYCAAYAWRYQAWEFGYWGQGTQVTVSS | high polyreactivity
QVQLVESGGGLVQAGGSLRLSCAASGFIFRRYAMGWYRPAPGKERELVAAITGGGGSTYYADSVKGRFTISRDNAKNTVYLQMNSLKPEDSAVYYCAASQARNYKIYDYWGQGTQVTVSS | high polyreactivity
QVQLVESGGGLVQAGGSLRLSCAASGGTFFSYAMGWYRQAPGKERELVAAISRGGDTTYADSVKGRFTISRDNAKNTVYLQMNSLKPEDTAVYYCAARVPPLLTDSPVFPYDYWGQGTQVTVSS | low polyreactivity
QVQLVESGGGLVQAGGSLRLSCAASGRTFRPYAMGWYRQAPGKERELDAAIDSSGTSTYYADSVKGRFTISRDNAKNTVYLQMNSLKPEDTAVYYCAKAWPDHWFSRYDYWGQGTQVTVSS | low polyreactivity
QVQLVESGGGLVQAGGSLRLSCAASGRTIIFNAMGWYRPAPGKERELVAAISSGGGTNYADSVKGRFTISRDNAKNTVYLQMNSLKPEDTAVYYCAADPRDHYSYVYDGYKYDYWGQGTQVTVSS | low polyreactivity
QVQLVESGGGLVQAGGSLRLRCAASGSILPWYAMGWYRHAPGKERELVAVITSDGGTNYADSVKGRFTISRDNSKNTVYLQMNSLKPEDTAVYYCAADRFSQSGFDSWGQGTQVTVSS | low polyreactivity
QVQLVESGGGLVQAGGILRLSCAASGRTIYYYAMGRYRQAPRKERELVASISWSGGSTYYADSVKGRFTISRDNAKNTVYLQMNSLKPEDTAVSYCNAQYHTYRWLYAVYLSGDYWGQGTQVTVSS | low polyreactivity
QVQLVESGGGLVQAGGSLRISCAASGRIFYYNAMGWYRQAPGKERELVAAITSGGSTNYADSVKGRFTISRDNAKNTVYLQMNSLKPEDTAVYYCAADYYYYVAGVHYDYWGQGTQVTVSS | low polyreactivity
QVQLVESVGGLVQAGGSLRFSCAASGFIFNYNALGWYRQAPGTERELVAAISGTGVRTYYADSVKGRFTISRDNAKNTVYLQMNSLKPEDTAVYYCNAYYGYIPVSGYRNDYWGQGTQVTVSS | low polyreactivity
QVQLVESGGGLVQAGGSLRLSCAASGSIFGDNAMGWYRQAPRKERELVAVISSSGSTYYADSVKGRFTISRDNAKNTVFLQMNSLKPEDSAVYYCNAYQFDWYEEYYYWGQGTQVTVSS | low polyreactivity
QVQLVESGGGLVQAGGSLRLSCAASGSTCERYAMGWSRQAPGKERELVAVISYRGTSTYYADSVKGRFTISRDNAKNTVYLQMNSLKAEDTAVYDCAAEPYRTVTAYRYSLYWYNYWGQGTQVTVSS | high polyreactivity
QVQLVESGGGLVQAGGSLRLSCAASGSTFALNAMGWYRQAPGKERELVAAIDDSGITYYADSVKGRFTISRDNAKNTVYLQMNSLKPDDTAVYYCAKKEWKSRTHAKGDQYPDDYWGQGTQVTVSS | low polyreactivity
QVQLVESGGGLVQAGGSLRLSCAASGLIFSEYAMGWYRQAPGKERELDAAIRSDGGSTYYADSVKGRFTISRDNAKNTVYLQMNSLKPEDTAVYYCNDRHRSQTRTAMNYWGQGTIVTVSS | high polyreactivity
QVQLVESGGGLVQAGGSLRLSCAASGRIFVKNAMGWYRQAPGKERELVAGISRGGSTYYADSVKGRFTISRDNAKNTVYLQMNSLKPEDTAVYYCATRNYGRGQFDYWGQGTQVTVSS | high polyreactivity
QVQLVESGGGLVQAGGSLRLSCAASGSTFWPNAMGWYRQAPGKERELVAAISWSSSSGGRTYYADSVKGRFTISRDNAKNTVYLQMNSLKPEDTAVYYCNASYRDEDDYWGQGTQVTVSS | high polyreactivity
QVQLVESGGGLVQAVGRLRLSCAASGSNFQYYAMGWYRQAPGKERELVAAISSSGTGTSYADSVKGRFTISRDNAKNTVYLQMNSLKPEDTGVYYCAADYRDYPDSAYYYWGQGTQVTVSS | low polyreactivity
QVQLVESGGGLVQAGGSLRLSCPASGRTFILNDMGRYRQAPGKEREFVATIDWSGGSSYYADSVKGRFTISRDNAKNTVFLQMNSLKPEDTAVYYCNRAFVPVYDLDYYWGQGTQVTVSS | low polyreactivity
QVHLVESGGGLVQAGGSLRLSSAASGSIFGANAMGWYRQAPGKERELVAAITSGSGTNYADSVKGRFTISRDNSKNTVYLQMNSLKPEDTAVYSCAARHPYPIYDYWGQGTQVTVSS | low polyreactivity
QVQLVESGGGLVQAGGSLRLSCAASGSTFYVYAMGWYRQAPGKERELVASITRGGGTYADSVKGRFTISRDNAKNTVYLQMNSQKPEDTAVYYCNARWQRSTGGRQRYDYWGQGTQVSVSS | high polyreactivity
QVQLVESGGGLVQAGGSLRLSCAASGRIYTYYTMGWYRQAPGKERELVAAITVRGGRTYYADSVKGRFTISRDNAKNTVYLQMNSLKPEDTAVYYCAARGLVRSYDYWGQVTQVTVSS | high polyreactivity
QVQLLESGGGLVQAGGSLRLICSASGRTFSGYALGWYRHSPGRERELVAAITSSGSSKYYADSVKGRFTISRDKAKYTVYLQMKSLKPEDTAVYYCAATPQAHSEPYFYQRKYDFWGEGTQVTVSS | low polyreactivity
